From patent US20100183625A1, “Treatment of Mucositis with Kallikrein Inhibitors” (Dyax Corp., priority 2009, published 2010) come the findings set out here.

The chains are these.
B1: X68-G05: single point mutation of M142-H08 (P3); HV-CDR3 GGLLLSFRELKSNYFDY (antibody, V domains shown)
VL: QDIQMTQSPSSLSAFVGDRVTITCRASQPIDNYLNWYHQKPGKAPKLLIYAASRLQSGVPSRLSGSGFGTDFTLTISSLQPEDFGNYYCQQSYTVPYTFGGGTKVEIR
VH: EVQLLESGGGLVQPGGSLRLSCAASGFTFSAYSMIWVRQAPGKGLEWVSYIRPSGGRTTYADSVKGRFTISRDNSKNILYLQMNSLRAEDTAVYYCARGGLLLSFRELKSNYFDYWGQGTLVTVSSASTKGPSVFPLAPSSKS
B2: X67-B03: single point mutation of M142-H08 (P2); HV-CDR3 GGLLLWSRELKSNYFDY (antibody, V domains shown)
VL: B1 VL
VH: B1 VH with I78T, S104W, F105S
B3: X66-H11: single point mutation of M142-H08 (P1); HV-CDR3 GGLLLWFTELKSNYFDY (antibody, V domains shown)
VL: B1 VL
VH: B1 VH with I78T, S104W, R106T
B4: X66-H04: single point mutation of M142-H08 (P1); HV-CDR3 GGLLLWFFELKSNYFDY (antibody, V domains shown)
VL: B1 VL
VH: B1 VH with I78T, S104W, R106F
B5: X66-G05: single point mutation of M142-H08 (P1); HV-CDR3 GGLLLWFMELKSNYFDY (antibody, V domains shown)
VL: B1 VL
VH: B1 VH with I78T, S104W, R106M
B6: X66-C03: single point mutation of M142-H08 (P1); HV-CDR3 GGLLLWFLELKSNYFDY (antibody, V domains shown)
VL: B1 VL
VH: B1 VH with I78T, S104W, R106L
B7: X67-H01: single point mutation of M142-H08 (P2); HV-CDR3 GGLLLWWRELKSNYFDY (antibody, V domains shown)
VL: B1 VL
VH: B1 VH with I78T, S104W, F105W
B8: X67-G01: single point mutation of M142-H08 (P2); HV-CDR3 GGLLLWCRELKSNYFDY (antibody, V domains shown)
VL: B1 VL
VH: B1 VH with I78T, S104W, F105C
B9: X67-E04: single point mutation of M142-H08 (P2); HV-CDR3 GGLLLWDRELKSNYFDY (antibody, V domains shown)
VL: B1 VL
VH: B1 VH with I78T, S104W, F105D
B10: X67-F10: single point mutation of M142-H08 (P2); HV-CDR3 GGLLLWTRELKSNYFDY (antibody, V domains shown)
VL: B1 VL
VH: B1 VH with I78T, S104W, F105T
B11: X67-C09: single point mutation of M142-H08 (P2); HV-CDR3 GGLLLWGRELKSNYFDY (antibody, V domains shown)
VL: B1 VL
VH: B1 VH with I78T, S104W, F105G
B12: X67-G05: single point mutation of M142-H08 (P2); HV-CDR3 GGLLLWRRELKSNYFDY (antibody, V domains shown)
VL: B1 VL
VH: B1 VH with I78T, S104W, F105R
B13: X67-G09: single point mutation of M142-H08 (P2); HV-CDR3 GGLLLWLRELKSNYFDY (antibody, V domains shown)
VL: B1 VL
VH: B1 VH with I78T, S104W, F105L
B14: X66-F10: single point mutation of M142-H08 (P1); HV-CDR3 GGLLLWFPELKSNYFDY (antibody, V domains shown)
VL: B1 VL
VH: B1 VH with I78T, S104W, R106P
B15: X66-A07: single point mutation of M142-H08 (P1); HV-CDR3 GGLLLWFKELKSNYFDY (antibody, V domains shown)
VL: B1 VL
VH: B1 VH with I78T, S104W, R106K
B16: X66-C11: single point mutation of M142-H08 (P1); HV-CDR3 GGLLLWFHELKSNYFDY (antibody, V domains shown)
VL: B1 VL
VH: B1 VH with I78T, S104W, R106H
B17: X68-F12: single point mutation of M142-H08 (P3); HV-CDR3 GGLLLTFRELKSNYFDY (antibody, V domains shown)
VL: B1 VL
VH: B1 VH with I78T, S104T
B18: X67-B05: single point mutation of M142-H08 (P2); HV-CDR3 GGLLLWPRELKSNYFDY (antibody, V domains shown)
VL: B1 VL
VH: B1 VH with I78T, S104W, F105P
B19: X66-D03: single point mutation of M142-H08 (P1); HV-CDR3 GGLLLWFEELKSNYFDY (antibody, V domains shown)
VL: B1 VL
VH: B1 VH with I78T, S104W, R106E
B20: X66-E04: single point mutation of M142-H08 (P1); HV-CDR3 GGLLLWFQELKSNYFDY (antibody, V domains shown)
VL: B1 VL
VH: B1 VH with I78T, S104W, R106Q
B21: X66-H02: single point mutation of M142-H08 (P1); HV-CDR3 GGLLLWFGELKSNYFDY (antibody, V domains shown)
VL: B1 VL
VH: B1 VH with I78T, S104W, R106G
B22: X66-B05: single point mutation of M142-H08 (P1); HV-CDR3 GGLLLWFCELKSNYFDY (antibody, V domains shown)
VL: B1 VL
VH: B1 VH with I78T, S104W, R106C
B23: X67-H04: single point mutation of M142-H08 (P2); HV-CDR3 GGLLLWERELKSNYFDY (antibody, V domains shown)
VL: B1 VL
VH: B1 VH with I78T, S104W, F105E
B24: X67-F08: single point mutation of M142-H08 (P2); HV-CDR3 GGLLLWYRELKSNYFDY (antibody, V domains shown)
VL: B1 VL
VH: B1 VH with I78T, S104W, F105Y
B25: X66-E09: single point mutation of M142-H08 (P1); HV-CDR3 GGLLLWFAELKSNYFDY (antibody, V domains shown)
VL: B1 VL
VH: B1 VH with I78T, S104W, R106A
B26: X66-F01: single point mutation of M142-H08 (P1); HV-CDR3 GGLLLWFSELKSNYFDY (antibody, V domains shown)
VL: B1 VL
VH: B1 VH with I78T, S104W, R106S
B27: X68-H04: single point mutation of M142-H08 (P3); HV-CDR3 GGLLLVFRELKSNYFDY (antibody, V domains shown)
VL: B1 VL
VH: B1 VH with I78T, S104V
B28: X67-B04: single point mutation of M142-H08 (P2); HV-CDR3 GGLLLWKRELKSNYFDY (antibody, V domains shown)
VL: B1 VL
VH: B1 VH with I78T, S104W, F105K

Residue numbers refer to the chain shown, from its start.

T1 sequence (P03952 391-638 limits assumed): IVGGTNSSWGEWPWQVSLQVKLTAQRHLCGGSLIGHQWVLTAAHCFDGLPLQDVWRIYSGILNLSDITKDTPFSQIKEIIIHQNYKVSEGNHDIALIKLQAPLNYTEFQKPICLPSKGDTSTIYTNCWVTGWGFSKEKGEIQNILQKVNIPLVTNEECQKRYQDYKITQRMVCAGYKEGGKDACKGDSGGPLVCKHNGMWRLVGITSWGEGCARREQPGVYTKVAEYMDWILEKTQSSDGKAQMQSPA
T1 sequence (P03952 20-390 partner limits assumed): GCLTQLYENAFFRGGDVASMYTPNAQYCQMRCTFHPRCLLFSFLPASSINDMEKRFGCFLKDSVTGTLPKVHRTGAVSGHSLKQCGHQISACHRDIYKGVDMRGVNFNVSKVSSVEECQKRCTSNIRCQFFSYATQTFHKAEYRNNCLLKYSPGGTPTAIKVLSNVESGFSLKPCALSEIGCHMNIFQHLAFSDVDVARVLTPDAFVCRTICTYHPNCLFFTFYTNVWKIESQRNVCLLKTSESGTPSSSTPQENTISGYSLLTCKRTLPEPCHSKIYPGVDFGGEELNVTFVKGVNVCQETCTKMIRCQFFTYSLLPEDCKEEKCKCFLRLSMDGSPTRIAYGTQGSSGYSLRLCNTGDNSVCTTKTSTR

This test addresses T1, pKal (Homo sapiens, UniProt P03952).
T1 construct: two disulfide linked polypeptides; a heavy chain of approximately 52 kDa and a catalytic domain of approximately 34 kDa; host or cells: human plasma
The experiment in a line: Fab fragments (small scale) tested for inhibition against human pKal in an in vitro protease cleavage assay. The test is classed as biochemical. The following applies: Table 9. The protocol: By DNA sequencing, we recovered 61 of the possible 80 antibodies (Table 9). These antibodies were produced as Fab fragments in small scale (˜20 μg) and tested for inhibition against human pKal in an in vitro protease cleavage assay using Pro-Phe-Arg-aminomethylcoumarin as the synthetic peptide substrate. […] Five antibodies were then expressed in 293T cells and purified by protein A sepharose chromatography. The antibodies were analyzed by SDS-PAGE to determine which of the inhibitory mutants are not cleaved by the host cell protease(s) (data not shown).
Regarding B1, the “Inhibit as a Fab?” value is on record as “No”.

In the case of B2, the “Inhibit as a Fab?” value was “Yes”.

B3: the “Inhibit as a Fab?” value is “No”.

As to B4, the “Inhibit as a Fab?” value is given as “No”.

Regarding B5, the “Inhibit as a Fab?” value is on record as “No”.

As to B6, the “Inhibit as a Fab?” value is listed as “No”.

Consider B7, for which the “Inhibit as a Fab?” value is given as “Yes”.

Turning to B8, the “Inhibit as a Fab?” value is on record as “No”.

Turning to B9, the “Inhibit as a Fab?” value is “Yes”.

In the case of B10, the “Inhibit as a Fab?” value is listed as “Yes”.

Regarding B11, the “Inhibit as a Fab?” value is listed as “Yes”.

For the molecule B12, the “Inhibit as a Fab?” value was “Yes”.

As for B13, the “Inhibit as a Fab?” value is given as “Yes”.

Take B14: the “Inhibit as a Fab?” value is listed as “No”.

B15: the “Inhibit as a Fab?” value is reported as “No”.

Turning to B16, the “Inhibit as a Fab?” value is reported as “No”.

As to B17, the “Inhibit as a Fab?” value was “No”.

As to B18, the “Inhibit as a Fab?” value was “No”.

For the molecule B19, the “Inhibit as a Fab?” value is “No”.

With B20, the “Inhibit as a Fab?” value is reported as “No”.

In the case of B21, the “Inhibit as a Fab?” value is given as “No”.

B22: the “Inhibit as a Fab?” value is “No”.

B23: the “Inhibit as a Fab?” value is reported as “Yes”.

B24: the “Inhibit as a Fab?” value was “Yes”.

As to B25, the “Inhibit as a Fab?” value was “No”.

Regarding B26, the “Inhibit as a Fab?” value is given as “No”.

For B27, the “Inhibit as a Fab?” value was “No”.

For the molecule B28, the “Inhibit as a Fab?” value was “Yes”.
